Measurements reported in publication PMC7367873, “Dissecting the sequence determinants for dephosphorylation by the catalytic subunits of phosphatases PP1 and PP2A” (Nature Communications, 2020).

B1: TRIM56 (protein, UniProt Q9BRZ2 1-755, looked up)
E3 ubiquitin-protein ligase …: MVSHGSSPSLLEALSSDFLACKICLEQLRAPKTLPCLHTYCQDCLAQLADGGRVRCPECRETVPVPPEGVASFKTNFFVNGLLDLVKARACGDLRAGKPACALCPLVGGTSTGGPATARCLDCADDLCQACADGHRCTRQTHTHRVVDLVGYRAGWYDEEARERQAAQCPQHPGEALRFLCQPCSQLLCRECRLDPHLDHPCLPLAEAVRARRPGLEGLLAGVDNNLVELEAARRVEKEALARLREQAARVGTQVEEAAEGVLRALLAQKQEVLGQLRAHVEAAEEAARERLAELEGREQVARAAAAFARRVLSLGREAEILSLEGAIAQRLRQLQGCPWAPGPAPCLLPQLELHPGLLDKNCHLLRLSFEEQQPQKDGGKDGAGTQGGEESQSRREDEPKTERQGGVQPQAGDGAQTPKEEKAQTTREEGAQTLEEDRAQTPHEDGGPQPHRGGRPNKKKKFKGRLKSISREPSPALGPNLDGSGLLPRPIFYCSFPTRMPGDKRSPRITGLCPFGPREILVADEQNRALKRFSLNGDYKGTVPVPEGCSPCSVAALQSAVAFSASARLYLINPNGEVQWRRALSLSQASHAVAALPSGDRVAVSVAGHVEVYNMEGSLATRFIPGGKASRGLRALVFLTTSPQGHFVGSDWQQNSVVICDGLGQVVGEYKGPGLHGCQPGSVSVDKKGYIFLTLREVNKVVILDPKGSLLGDFLTAYHGLEKPRVTTMVDGRYLVVSLSNGTIHIFRVRSPDS
B2: SRPR (protein, UniProt P08240 1-638, looked up)
Signal recognition particle …: MLDFFTIFSKGGLVLWCFQGVSDSCTGPVNALIRSVLLQERGGNNSFTHEALTLKYKLDNQFELVFVVGFQKILTLTYVDKLIDDVHRLFRDKYRTEIQQQSALSLLNGTFDFQNDFLRLLREAEESSKIRAPTTMKKFEDSEKAKKPVRSMIETRGEKPKEKAKNSKKKGAKKEGSDGPLATSKPVPAEKSGLPVGPENGVELSKEELIRRKREEFIQKHGRGMEKSNKSTKSDAPKEKGKKAPRVWELGGCANKEVLDYSTPTTNGTPEAALSEDINLIRGTGSGGQLQDLDCSSSDDEGAAQNSTKPSATKGTLGGMFGMLKGLVGSKSLSREDMESVLDKMRDHLIAKNVAADIAVQLCESVANKLEGKVMGTFSTVTSTVKQALQESLVQILQPQRRVDMLRDIMDAQRRQRPYVVTFCGVNGVGKSTNLAKISFWLLENGFSVLIAACDTFRAGAVEQLRTHTRRLSALHPPEKHGGRTMVQLFEKGYGKDAAGIAMEAIAFARNQGFDVVLVDTAGRMQDNAPLMTALAKLITVNTPDLVLFVGEALVGNEAVDQLVKFNRALADHSMAQTPRLIDGIVLTKFDTIDDKVGAAISMTYITSKPIVFVGTGQTYCDLRSLNAKAVVAALMKA
B3: VDAC2 (protein, UniProt P45880 2-294, looked up)
Non-selective voltage-gated …: ATHGQTCARPMCIPPSYADLGKAARDIFNKGFGFGLVKLDVKTKSCSGVEFSTSGSSNTDTGKVTGTLETKYKWCEYGLTFTEKWNTDNTLGTEIAIEDQICQGLKLTFDTTFSPNTGKKSGKIKSSYKRECINLGCDVDFDFAGPAIHGSAVFGYEGWLAGYQMTFDSAKSKLTRNNFAVGYRTGDFQLHTNVNDGTEFGGSIYQKVCEDLDTSVNLAWTSGTNCTRFGIAAKYQLDPTASISAKVNNSSLIGVGYTQTLRPGVKLTLSALVDGKSINAGGHKVGLALELEA
B4: DPM1 (protein, UniProt O60762 2-260, looked up)
Dolichol-phosphate …: ASLEVSRSPRRSRRELEVRSPRQNKYSVLLPTYNERENLPLIVWLLVKSFSESGINYEIIIIDDGSPDGTRDVAEQLEKIYGSDRILLRPREKKLGLGTAYIHGMKHATGNYIIIMDADLSHHPKFIPEFIRKQKEGNFDIVSGTRYKGNGGVYGWDLKRKIISRGANFLTQILLRPGASDLTGSFRLYRKEVLEKLIEKCVSKGYVFQMEMIVRARQLNYTIGEVPISFVDRVYGESKLGGNEIVSFLKGLLTLFATT
B5: TMCO1 (protein, UniProt Q9UM00 1-239, looked up)
Calcium load-activated …: MPRKRKCDLRAVRVGLLLGGGGVYGSRFRFTFPGCRALSPWRVRVQRRRCEMSTMFADTLLIVFISVCTALLAEGITWVLVYRTDKYKRLKAEVEKQSKKLEKKKETITESAGRQQKKKIERQEEKLKNNNRDLSMVRMKSMFAIGFCFTALMGMFNSIFDGRVVAKLPFTPLSYIQGLSHRNLLGDDTTDCSFIFLYILCTMSIRQNIQKILGLAPSRAATKQAGGFLGPPPPSGKFS
B6: U2SURP (protein, UniProt O15042 2-1029, looked up)
U2 snRNP-associated SURP …: ADKTPGGSQKASSKTRSSDVHSSGSSDAHMDASGPSDSDMPSRTRPKSPRKHNYRNESARESLCDSPHQNLSRPLLENKLKAFSIGKMSTAKRTLSKKEQEELKKKEDEKAAAEIYEEFLAAFEGSDGNKVKTFVRGGVVNAAKEEHETDEKRGKIYKPSSRFADQKNPPNQSSNERPPSLLVIETKKPPLKKGEKEKKKSNLELFKEELKQIQEERDERHKTKGRLSRFEPPQSDSDGQRRSMDAPSRRNRSSGVLDDYAPGSHDVGDPSTTNLYLGNINPQMNEEMLCQEFGRFGPLASVKIMWPRTDEERARERNCGFVAFMNRRDAERALKNLNGKMIMSFEMKLGWGKAVPIPPHPIYIPPSMMEHTLPPPPSGLPFNAQPRERLKNPNAPMLPPPKNKEDFEKTLSQAIVKVVIPTERNLLALIHRMIEFVVREGPMFEAMIMNREINNPMFRFLFENQTPAHVYYRWKLYSILQGDSPTKWRTEDFRMFKNGSFWRPPPLNPYLHGMSEEQETEAFVEEPSKKGALKEEQRDKLEEILRGLTPRKNDIGDAMVFCLNNAEAAEEIVDCITESLSILKTPLPKKIARLYLVSDVLYNSSAKVANASYYRKFFETKLCQIFSDLNATYRTIQGHLQSENFKQRVMTCFRAWEDWAIYPEPFLIKLQNIFLGLVNIIEEKETEDVPDDLDGAPIEEELDGAPLEDVDGIPIDATPIDDLDGVPIKSLDDDLDGVPLDATEDSKKNEPIFKVAPSKWEAVDESELEAQAVTTSKWELFDQHEESEEEENQNQEEESEDEEDTQSSKSEEHHLYSNPIKEEMTESKFSKYSEMSEEKRAKLREIELKVMKFQDELESGKRPKKPGQSFQEQVEHYRDKLLQREKEKELERERERDKKDKEKLESRSKDKKEKDECTPTRKERKRRHSTSPSPSRSSSGRRVKSPSPKSERSERSERSHKESSRSRSSHKDSPRDVSKKAKRSPSGSRTPKRSRRSRSRSPKKSGKKSRSQSRSPHRSHKKSKKNKH
B7: RPN2 (protein, UniProt P04844 23-631, looked up)
Dolichyl-diphosphooligosacchar …: LTPTHYLTKHDVERLKASLDRPFTNLESAFYSIVGLSSLGAQVPDAKKACTYIRSNLDPSNVDSLFYAAQASQALSGCEISISNETKDLLLAAVSEDSSVTQIYHAVAALSGFGLPLASQEALSALTARLSKEETVLATVQALQTASHLSQQADLRSIVEEIEDLVARLDELGGVYLQFEEGLETTALFVAATYKLMDHVGTEPSIKEDQVIQLMNAIFSKKNFESLSEAFSVASAAAVLSHNRYHVPVVVVPEGSASDTHEQAILRLQVTNVLSQPLTQATVKLEHAKSVASRATVLQKTSFTPVGDVFELNFMNVKFSSGYYDFLVEVEGDNRYIANTVELRVKISTEVGITNVDLSTVDKDQSIAPKTTRVTYPAKAKGTFIADSHQNFALFFQLVDVNTGAELTPHQTFVRLHNQKTGQEVVFVAEPDNKNVYKFELDTSERKIEFDSASGTYTLYLIIGDATLKNPILWNVADVVIKFPEEEAPSTVLSQNLFTPKQEIQHLFREPEKRPPTVVSNTFTALILSPLLLLFALWIRIGANVSNFTFAPSTIIFHLGHAAMLGLMYVYWTQLNMFQTLKYLAILGSVTFLAGNRMLAQQAVKRTAH

system: GFP-14-3-3β and its binding proteins; assay: GFP-14-3-3β co-IP with LC-MS/MS label-free quantification, untreated versus PP1c-treated; parameters: species or system human; conditions: PP1 vs untreated; label-free quantification

Molecule	Difference (log2), PP1 vs untreated [log2]
B1	0.8378
B2	0.9083
B3	0.9262
B4	0.914
B5	0.8935
B6	0.8713

same assay, conditions: log2 difference; pairwise comparison PP1 vs untreated, label-free quantification, 3 replicates each

Molecule	Difference (log2), PP1 vs untreated
B7	2.419

system: GFP-14-3-3β; assay: GFP-14-3-3β co-IP with LC-MS/MS, untreated GFP-14-3-3β versus GFP control (14-3-3 interactome); type: binding, human; conditions: log2 difference; pairwise comparison untreated vs GFP, label-free quantification, 3 replicates each

Molecule	Difference (log2), untreated vs GFP
B7	-1.824

same assay, conditions: untreated vs GFP; label-free quantification

Molecule	Difference (log2), untreated vs GFP [log2]
B1	-0.02313
B2	-0.7055
B3	2.092
B4	1.004
B5	2.261
B6	0.6
